Data taken from the supplement of paper PMC10567573.

B1: KLHL14 (parent)
chain: NETGYLSSVECYNLETNEWRYVSS

Variants of: B1
Assay: protein stability index of a GFP-peptide fusion (GPS, HEK-293T) (PSI 1-6); higher = more stable
Details: c terminus: a fixed tail appended
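Also: lentivirally expressed fusions sorted by FACS into six bins by GFP to DsRed ratio, PSI derived from sequencing read proportions per bin multiplied by bin number.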

Protein stability index, by site and new letter:
N13: F 1.64; M 2.21; Y 2.63; R 2.81; H 2.73; L 1.8; W 1.71; K 2.56; V 1.47; S 2.69; G 2.67; I 1.52; Q 2.8; D 3.83; A 2.99; C 2.06; T 3.24; E 2.79; P 3.48
E18: H 2.94; T 3.22; M 2.92; C 2.55; R 3.68; I 2.68; F 3.41; V 2.62; Q 2.93; S 2.9; N 3.49; Y 2.57; P 2.58; L 3.02; K 3.48; A 2.83; D 3.72; G 2.36; W 2.15
V22: M 2.95; S 2.71; N 3.27; H 2.18; Y 3.02; L 2.81; I 2.47; A 3.42; K 3.25; E 4.18; R 3.2; Q 3.73; W 2.22; C 2.29; G 3.85; D 3.8; F 2.14; P 3.16; T 3.01
S24: G 3.82; M 3.93; F 3.94; H 3.82; L 3.41; I 3.02; E 3.77; K 4.28; D 3.83; C 4; N 3.91; A 4.1
S8: N 4.16; C 2.55; Y 1.67; F 2.1; L 2.77; E 4.43; K 2.85; H 2.17; I 2.29; Q 3.29; T 3.27; V 2.77; R 2.35; G 3.76; M 2.73; D 4.02; P 4.21; A 3.34
E10: V 1.71; M 1.86; P 2.83; C 2.46; F 1.64; T 2.98; G 2.72; D 3.18; A 2.72; S 1.94; Y 1.58; R 3.23; K 3.05; I 1.69; H 2.22; L 1.45; Q 3.42; N 2.48; W 1.75
N17: T 3.01; K 3.72; A 2.92; H 3.31; V 3.06; P 3.42; Y 2.64; Q 4.06; M 3.19; S 4.14; L 3.66; G 3.67; C 2.84; D 4.02; R 3.01; E 4.2; W 2.25; I 2.31; F 2.9
L6: Y 2.86; V 3.39; W 4.46; T 3.97
W19: C 4.26; F 4.71; R 4.92; I 4.75; D 4.83; P 3.66; T 4.99; S 5.26; L 4.37; H 4.77; E 4.97; K 5.08; N 5.05; V 4.58; Y 4.5; Q 4.31; A 4.75; M 4.36
C11: I 2.55; T 3.6; M 3.23; K 3.58; N 4.18; Q 4.11; R 3.73; G 3.91; F 2.83; V 2.76; S 3.77; D 4.58; Y 3.06; L 2.97; P 3.92; E 3.8; W 4.03; H 4.09
S23: A 3.19; F 3.67; E 3.68; H 3.26; N 3.98; Y 3.71; K 3.27; D 4.24; V 3.76; Q 3.73; M 3.59; R 2.87; P 3.39; T 3.38; L 2.07; C 3.22; G 4.02; I 4.09
S7: D 3.89; N 3.89; M 2.48; A 3.42; T 3.45; Y 2.26; Q 3.86; C 2.52; R 3.64; K 2.96; P 3.88; E 4.08; V 2.45; G 3.47; F 1.64; W 2.11; L 2.24; I 2.46; H 2.8
E15: F 1.8; N 3.03; T 2.02; C 2.34; G 3.18; W 2.13; K 3.66; S 2.08; D 3.41; R 2.39; P 2.54; A 1.94; I 1.84; L 2.61; H 2.42; Y 2.15; M 2.63; V 2.25; Q 2.58
R20: T 2.69; P 3.35; M 2.65; A 2.95; C 2.43; Y 2.18; Q 3.49; L 1.88; H 2.83; W 2.41; S 3.04; I 2.3; D 4.12; F 2.2; N 3.51; V 2.32; E 4.04; K 3.6; G 3.06
V9: K 2.96; R 3.41; L 3.12; W 2.43; N 4.11; C 3.35; D 4.39; H 3.88; T 3.4; Q 3.85; Y 3.14; F 2.67; S 3.87; I 3.16; E 4; P 3.84; G 3.88; A 4.07; M 3.62
L14: P 4.16; C 3.2; Y 2.95; G 3.49; M 3.46; S 4.68; R 3.73; T 3.62; I 3.35; H 3.74; D 4.15; A 3.96; F 3.38; Q 3.88; E 4.6; N 4.24; K 3.99; W 3.11; V 3.41
Y12: E 4.24; R 3.72; A 3.94; P 4.05; V 4.09; G 3.76; I 2.95; C 3.36; M 3.5; K 3.97; D 4.55; S 4; Q 3.84; F 3.69; H 3.81; L 3.67; W 3.1; T 3.89; N 3.78
Y21: I 2.87; Q 3.02; P 3.21; K 2.89; W 3.5; G 3.14; D 4; H 2.96; M 3.82; V 3.57; N 3.67; S 3.61; L 3.1; R 3.24; T 3.93; E 3.66; F 1.83; C 3.57; A 3.79
T16: Q 4.16; S 3.8; L 2.63; V 3; R 3.17; M 2.66; P 2.89; Y 2.8; K 2.96; N 3.52; I 2.48; D 4.07; F 2.71; H 3.26; W 2.05; G 3.83; C 3.58; E 3.83
